Read-outs that look alike come from different tables or passages of the source.
Legend:
[1] = target: aryl hydrocarbon receptor nuclear translocator PAS-B E362R, conjugated with Alexa-Fluor 488; assay: MST
[2] = target: aryl hydrocarbon receptor nuclear translocator PAS-B E362R, conjugated with Alexa-Fluor 488; assay: MST; remark: listed apart in the source
[3] = target: aryl hydrocarbon receptor nuclear translocator PAS-B E362R; assay: ITC
[4] = target: aryl hydrocarbon receptor nuclear translocator PAS-B E362R, conjugated with Alexa-Fluor 488; assay: MST; remark: listed apart in the source

HIF-2α PAS-B R247E (domain or fragment)
Kd [1]: 170 nM | Kd [2]: 250 nM | Kd [3]: 560 nM | dH [3]: 4.4 kcal/mol | Kd [4]: 820 nM
